Assay results: patent publication US20060088847

B1: GST-ARF-BP1 (3760-4374) (protein)
chain: IQAAVRQLEAEADAIIQMVREGQRARRQQQAATSESSQSEASVRREESPMDVDQPSPSAQDTQSIASDGTPQGEKEKEERPPELPLLSEQLSLDELWDMLGECLKELEESHDQHAVLVLQPAVEAFFLVHATERESKPPVRDTRESQLAHIKDEPPPLSPAPLTPATPSSLDPFFSREPSSMHISSSLPPDTQKFLRFAETHRTVLNQILRQSTTHLADGPFAVLVDYIRVLDFDVKRKYFRQELERLDEGLRKEDMAVHVRRDHVFEDSYRELHRKSPEEMKNRLYIVFEGEEGQDAGGLLREWYMIISREMFNPMYALFRTSPGDRVTYTINPSSHCNPNHLSYFKFVGRIVAKAVYDNRLLECYFTRSFYKHILGKSVRYTDMESEDYHFYQGLVYLLENDVSTLGYDLTFSTEVQEFGVCEVRDLKPNGANILVTEENKKEYVHLVCQMRMTGAIRKQLAAFLEGFYEIIPKRLISIFTEQELELLISGLPTIDIDDLKSNTEYHKYQSNSIQIQWFWRALRSFDQADRAKFLQFVTGTSKVPLQGFAALEGMNGIQKFQIHRDDRSTDRLPSAHTCFNQLDLPAYESFEKLRHMLLLAIQECSEGFGLA
Flag-p53, P04637
Flag-p53, P04637, sequence (P04637 whole entry, looked up): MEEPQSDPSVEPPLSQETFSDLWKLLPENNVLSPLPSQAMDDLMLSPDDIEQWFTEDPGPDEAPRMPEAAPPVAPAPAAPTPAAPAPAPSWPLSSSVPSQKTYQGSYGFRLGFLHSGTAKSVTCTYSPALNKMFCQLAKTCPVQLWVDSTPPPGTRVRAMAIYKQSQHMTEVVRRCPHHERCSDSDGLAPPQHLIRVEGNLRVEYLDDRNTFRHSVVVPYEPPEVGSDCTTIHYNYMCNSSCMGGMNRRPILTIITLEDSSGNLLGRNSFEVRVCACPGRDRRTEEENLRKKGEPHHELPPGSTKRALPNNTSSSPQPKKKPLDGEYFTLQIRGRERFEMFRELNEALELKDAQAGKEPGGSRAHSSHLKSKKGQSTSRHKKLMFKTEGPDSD
  p53 ubiquitination, in vitro ubiquitination assay with purified components: high levels of ubiquitinated p53 were generated by ARF-BP1 (lane 2)
GST-B23 protein, P06748
GST-B23 protein, P06748, sequence (P06748 whole entry): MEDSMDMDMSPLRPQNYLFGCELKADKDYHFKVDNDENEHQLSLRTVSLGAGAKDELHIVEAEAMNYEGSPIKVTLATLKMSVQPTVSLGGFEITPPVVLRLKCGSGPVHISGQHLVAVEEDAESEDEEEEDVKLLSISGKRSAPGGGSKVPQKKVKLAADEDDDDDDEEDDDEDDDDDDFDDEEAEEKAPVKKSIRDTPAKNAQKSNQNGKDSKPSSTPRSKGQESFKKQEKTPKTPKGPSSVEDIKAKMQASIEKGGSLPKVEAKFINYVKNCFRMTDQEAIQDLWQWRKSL
  NPM/B23 ubiquitination, in vitro ubiquitination assay: no significant ubiquitination of NPM/B23 was detected by Western blot analysis with the anti-NPM/B23 antibody
